Where a chain is given by its changes, count along the chain named.
B1: XAB1 (antibody, human IgG1, kappa, V domains shown)
VH: EVQLVESGGDLVQPGGSLRLSCAASGFTFSSYWMSWVRQAPGKGLEWVANIKQDGSEKYYVDSVKGRFTISRDNAKNSLYLQMNSLRAEDTAVYYCARDRGSLYYWGQGTLVTVSS
VL: AIQLTQSPSSLSASVGDRVTITCRPSQGIISALAWYQQKPGKAPKLLIYDASSLENGVPSRFSGSGSGTDFTLTISSLQPEDFATYYCQQFNSYPLTFGGGTKVEIKR
B2: XAB3 (antibody, human IgG1, kappa, V domains shown)
VH: B1 VH
VL: B1 VL with I30Y, S31W, A32E, N56Q
B3: XAB5 (antibody, human IgG1, kappa, V domains shown)
VH: B1 VH
VL: B1 VL with I30N, S31W, A32E
B4: XAB4T (Fab, part only; not given: CH1 and tag, part only)
heavy, part: EVQLVESGGDLVQPGGSLRLSCAASGFTFSSYWMSWVRQAPGKGLEWVANIKQDGSEKYYVDSVKGRFTISRDNAKNSLYLQMNSLRAEDTAVYYCARDRGSLYYWGQGTLVTVSSGSGGG
light: AIQLTQSPSSLSASVGDRVTITCRPSQGINWELAWYQQKPGKAPKLLIYDASSLEQGVPSRFSGSGSGTDFTLTISSLQPEDFATYYCQQFNSYPLTFGGGTKVEIKRTVAAPSVFIFPPSDEQLKSGTASVVCLLNNFYPREAKVQWKVDNALQSGNSQESVTEQDSKDSTYSLSSTLTLSKADYEKHKVYACEVTHQGLSSPVTKSFNRGEC

What was measured:
[1] = target: T1, recombinant huIL-17A (SEQ ID NO: 76) (human, UniProt Q16552 24-155, limits assumed); test: cell-based or functional assay
T1 sequence: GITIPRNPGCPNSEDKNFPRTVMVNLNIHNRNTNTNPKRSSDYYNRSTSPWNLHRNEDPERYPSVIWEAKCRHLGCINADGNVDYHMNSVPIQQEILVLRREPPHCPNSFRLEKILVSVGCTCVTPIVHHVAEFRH

[2] = target: T2, recombinant huIL-17A/F heterodimer (human, UniProt Q16552 24-155; Q96PD4 31-163, limits assumed); test: cell-based or functional assay
T2 sequence (looked up) 1: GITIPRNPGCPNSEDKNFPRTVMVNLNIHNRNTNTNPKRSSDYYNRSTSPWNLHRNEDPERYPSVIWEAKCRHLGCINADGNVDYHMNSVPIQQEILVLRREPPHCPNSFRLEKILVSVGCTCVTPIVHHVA
T2 sequence (looked up) 2: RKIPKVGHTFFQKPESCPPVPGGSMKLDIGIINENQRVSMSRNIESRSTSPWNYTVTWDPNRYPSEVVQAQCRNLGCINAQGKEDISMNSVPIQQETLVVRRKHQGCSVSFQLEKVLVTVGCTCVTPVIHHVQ

recombinant huIL-17F [3] = target: T3, recombinant huIL-17F (human, UniProt Q96PD4 31-163); test: cell-based or functional assay
T3 sequence: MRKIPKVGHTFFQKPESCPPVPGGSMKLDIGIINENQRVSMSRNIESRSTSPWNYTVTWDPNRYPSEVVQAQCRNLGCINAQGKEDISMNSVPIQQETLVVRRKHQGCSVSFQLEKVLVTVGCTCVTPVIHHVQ

[4] = target: T1, recombinant huIL-17A (SEQ ID NO: 76); test: cell-based or functional assay; remark: listed apart in the source
[5] = target: T2, recombinant huIL-17A/F heterodimer; test: cell-based or functional assay; remark: listed apart in the source
recombinant huIL-17F [6] = target: T3, recombinant huIL-17F; test: cell-based or functional assay; remark: listed apart in the source
[7] = target: T1, recombinant huIL-17A (SEQ ID NO: 76); test: cell-based or functional assay; remark: listed apart in the source
[8] = target: T1, recombinant huIL-17A (SEQ ID NO: 76); test: cell-based or functional assay; remark: listed apart in the source
recombinant mIL-17A [9] = target: T4, recombinant mIL-17A (mouse, UniProt Q62386 26-158); test: cell-based or functional assay
T4 sequence: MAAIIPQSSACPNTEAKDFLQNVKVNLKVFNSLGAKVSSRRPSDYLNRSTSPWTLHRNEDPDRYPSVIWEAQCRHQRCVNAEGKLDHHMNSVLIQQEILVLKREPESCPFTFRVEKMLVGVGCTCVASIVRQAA

[10] = target: T5, recombinant mIL-17A/F (R&D Systems Cat#5390-IL) (mouse, UniProt Q62386 26-158; Q7TNI7 29-161, limits assumed); test: cell-based or functional assay
T5 sequence (looked up) 1: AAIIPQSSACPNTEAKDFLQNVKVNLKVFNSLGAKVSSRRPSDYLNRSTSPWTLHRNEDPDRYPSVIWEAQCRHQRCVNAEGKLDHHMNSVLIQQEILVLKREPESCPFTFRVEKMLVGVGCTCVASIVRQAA
T5 sequence (looked up) 2: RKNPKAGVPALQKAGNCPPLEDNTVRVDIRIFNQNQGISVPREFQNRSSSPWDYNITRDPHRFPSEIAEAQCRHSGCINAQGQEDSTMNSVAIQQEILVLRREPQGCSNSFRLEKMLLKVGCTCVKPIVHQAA

rat IL-17A = target: T6, rat IL-17A (rat, UniProt Q61453 18-150); test: cell-based or functional assay
T6 sequence: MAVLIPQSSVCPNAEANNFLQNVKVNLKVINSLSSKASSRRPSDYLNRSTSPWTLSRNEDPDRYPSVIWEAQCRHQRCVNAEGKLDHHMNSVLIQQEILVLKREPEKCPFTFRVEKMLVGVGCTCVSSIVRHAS

[11] = target: T7, recombinant mIL-17F (SEQ ID NO: 84) (mouse, UniProt Q7TNI7 29-161); test: cell-based or functional assay
T7 sequence: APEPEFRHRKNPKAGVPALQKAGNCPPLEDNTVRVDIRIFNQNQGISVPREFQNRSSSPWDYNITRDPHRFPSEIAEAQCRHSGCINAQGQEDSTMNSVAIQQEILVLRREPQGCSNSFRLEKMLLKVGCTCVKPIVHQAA

recombinant mIL-17A [12] = target: T4, recombinant mIL-17A; test: cell-based or functional assay; remark: listed apart in the source
[13] = target: T8, recombinant huIL-20 (Novartis) (human) (UniProt Q9NYY1); test: ELISA, coated cytokine, antibody 10 µg/ml
T8 sequence (looked up): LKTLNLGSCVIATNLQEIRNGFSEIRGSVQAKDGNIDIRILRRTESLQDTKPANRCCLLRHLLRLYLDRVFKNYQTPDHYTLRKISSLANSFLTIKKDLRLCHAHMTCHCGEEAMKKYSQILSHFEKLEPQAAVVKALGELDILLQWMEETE

[14] = target: T9, human IL-17A (construct not specified) (human, UniProt Q16552 24-155, limits assumed); test: cell-based or functional assay
T9 sequence: T1 sequence

[15] = target: T10, human IL-17A biotin (human) (UniProt Q16552); test: SPR (Biacore), 25° C., biotinylated ligand
T10 sequence (chain, biotinylated, site not given): T1 sequence

| Binder | IC50, huIL-6 secretion by BJ cells; rhuIL-17A (30 pM) + rhuTNF-α (6 pM) [1] [nM] | IC50, huIL-6 secretion by BJ cells; rhuIL-17A/F (300 pM) + rhuTNF-α (6 pM) [2] [nM] | IC50, huIL-6 secretion by BJ cells; rhuIL-17F (10 nM) + rhuTNF-α (6 pM) (recombinant huIL-17F [3]) [nM] | IC50, hu-GRO-alpha secretion by BJ cells; IL-17A (30 pM) + TNF-α (6 pM) [4] [nM] | IC50, hu-GRO-alpha secretion by BJ cells; IL-17A/F (300 pM) + TNF-α (6 pM) [5] [nM] | IC50, hu-GRO-alpha secretion by BJ cells; IL-17F (10 nM) + TNF-α (6 pM) (recombinant huIL-17F [6]) [nM] | IC50, huIL-6 secretion by BJ cells; rhuIL-17A (0.5 nM) [7] [nM] | IC50, huGROα secretion by BJ cells; rhuIL-17A (0.5 nM) [8] [nM] | IC50, mouse KC secretion by CMT-93 cells; mIL-17A (1 nM) (recombinant mIL-17A [9]) [nM] | IC50, mouse KC secretion by CMT-93 cells; mIL-17A/F (3 nM) [10] [nM] | IC50, mouse KC secretion by CMT-93 cells; rIL-17A (1 nM) (rat IL-17A) [nM] | IC50, mouse KC secretion by CMT-93 cells; mIL-17F (30 nM) [11] [µM] | IC50, KC secretion by CMT-93 cells; mIL-17A (0.15 nM) (recombinant mIL-17A [12]) [nM] | O.D. [13] [O.D.] | EC50, T = 0 weeks [14] [ng/mL] | EC50, T = 4 weeks at pH 8, 40° C. (forced deamidation) [14] [ng/ml] | Kd [15] [pM] | koff [15] [s⁻¹] | kon [15] [M⁻¹ s⁻¹] |
| --- | --- | --- | --- | --- | --- | --- | --- | --- | --- | --- | --- | --- | --- | --- | --- | --- | --- | --- | --- |
| B1 | 0.47 | 3.83 | > 3000 | 0.72 | 6.22 | > 3000 | 4.97 | 1.39 | 539 | > 1000 | 467 | > 10 | 128 | 0.335 |  |  |  |  |  |
| B2 |  |  |  |  |  |  | 0.5 | 0.42 |  |  |  |  | < 1 |  | 40 | 40 |  |  |  |
| B3 |  |  |  |  |  |  | 0.54 | 0.46 |  |  |  |  | 7.8 |  | 45 | 61 |  |  |  |
| B4 |  |  |  |  |  |  |  |  |  |  |  |  |  |  |  |  | 7.68 | 3.46e-05 | 4.51e+06 |
